The results in this text go back to patent US20070092444A1, “Inhibition of inward sodium currents in cancer” (priority 2003, published 2007).

One data set concerns U87-MG cells. Briefly: Transwell Migration Assay, U87-MG cells. The format is cell-based, human. As to conditions: concentration-dependent.
The next data set deals with U87-MG and SK-MG cells. Briefly: [^3H]-thymidine incorporation. The format is cell-based, human. The conditions noted are these: same concentration range (10-100 μM). An excerpt: (§1) If the Na^+ conductance seen in high-grade glioma cells was required or linked to the high rate of cell growth, inhibition of the pathway should result in inhibition of cell growth and/or cell death. […] However, benzamil is ineffective in inhibiting Na^+/H^+ exchange in glial cells (73), yet still can inhibit proliferation in this assay. […] Therefore, inhibition of the inward Na^+ current results in inhibition and/or stoppage of cell growth. These observations establish the importance of this pathway in tumor cell biology.

Data set [1] can be described thus: Activity of tyrosine-extended PcTX1 compared with unmodified PcTX1.
Data set [2] has as its system SKMG, U373, and U251 glioma cell lines. Briefly: MTT Cell Proliferation Assay, three GBM cell lines. As to conditions: drug concentrations between 10-100 μM. The format is cell-based, human. Here is the method: Cells were plated in 96-well plates at 1000, 4000, and 2000 cells/well for SK-MG, U373, and U251 cells, respectively. Drug was added at specified concentration on day 3 after plating (at the beginning of log phase of growth).
as §1

A further data set deals with T1, ASIC1+ASIC2+γ-hENaC (Homo sapiens, UniProt P51170+P78348+Q16515).
T1 construct: made in house; host or cells: Xenopus oocytes (membrane vesicles)
Briefly: ASIC1+ASIC2+γ-hENaC in planar lipid bilayers. The conditions noted are these: 25 μM, cis bathing solution; γ-hENaC co-expressed with ASIC1/2. In kind it is biochemical. Here is the method: FIGS. 14A and B show the effect of syntaxin 1A on ASIC1+ASIC2 (FIG. 14A) and ASIC1+ASIC2+γ-hENaC (FIG. 14B) in planar lipid bilayers. The holding potential was +100 mV and records were filtered at 200 Hz.
The effect of syntaxin 1A on constitutive amiloride-sensitive inward Na^+ current activity in planar lipid bilayers was examined (FIGS. 14A and B). For these experiments, membrane vesicles were prepared from oocytes that were previously injected with cRNA encoding both ASIC1 and ASIC2±γ-hENaC. […] Syntaxin 1A was then added as a GST fusion protein to the cis (or cytoplasmic) bathing solution. […] The same results were found in oocyte expression studies (FIG. 15).

Data set [3] addresses T2, ASIC1 (recombinant: in vitro translated in proteoliposomes, expressed in Xenopus oocytes, reconstituted in planar lipid bilayers) (UniProt P78348).
T2 sequence: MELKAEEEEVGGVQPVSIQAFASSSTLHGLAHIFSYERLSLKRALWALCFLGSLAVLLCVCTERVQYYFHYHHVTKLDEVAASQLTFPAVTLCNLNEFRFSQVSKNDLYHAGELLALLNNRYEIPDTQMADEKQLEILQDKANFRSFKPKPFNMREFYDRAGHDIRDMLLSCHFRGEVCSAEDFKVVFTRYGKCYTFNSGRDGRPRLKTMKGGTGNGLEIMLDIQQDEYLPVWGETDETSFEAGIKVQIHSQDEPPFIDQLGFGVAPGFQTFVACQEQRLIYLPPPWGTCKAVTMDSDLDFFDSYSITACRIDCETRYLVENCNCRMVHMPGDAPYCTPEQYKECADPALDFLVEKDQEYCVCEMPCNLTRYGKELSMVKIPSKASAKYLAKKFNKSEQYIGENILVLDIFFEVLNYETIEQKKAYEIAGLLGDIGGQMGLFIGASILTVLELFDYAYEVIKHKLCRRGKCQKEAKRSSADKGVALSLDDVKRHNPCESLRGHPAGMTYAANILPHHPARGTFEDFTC

For data set [4], the target named is T2, ASIC1 (recombinant: in vitro translated in proteoliposomes, expressed in Xenopus oocytes, reconstituted in planar lipid bilayers). The data set is described as follows: cell-based or functional assay.
For the next data set, the target named is T3, ASIC1 (Homo sapiens, UniProt P78348).
T3 sequence (P78348 1-528): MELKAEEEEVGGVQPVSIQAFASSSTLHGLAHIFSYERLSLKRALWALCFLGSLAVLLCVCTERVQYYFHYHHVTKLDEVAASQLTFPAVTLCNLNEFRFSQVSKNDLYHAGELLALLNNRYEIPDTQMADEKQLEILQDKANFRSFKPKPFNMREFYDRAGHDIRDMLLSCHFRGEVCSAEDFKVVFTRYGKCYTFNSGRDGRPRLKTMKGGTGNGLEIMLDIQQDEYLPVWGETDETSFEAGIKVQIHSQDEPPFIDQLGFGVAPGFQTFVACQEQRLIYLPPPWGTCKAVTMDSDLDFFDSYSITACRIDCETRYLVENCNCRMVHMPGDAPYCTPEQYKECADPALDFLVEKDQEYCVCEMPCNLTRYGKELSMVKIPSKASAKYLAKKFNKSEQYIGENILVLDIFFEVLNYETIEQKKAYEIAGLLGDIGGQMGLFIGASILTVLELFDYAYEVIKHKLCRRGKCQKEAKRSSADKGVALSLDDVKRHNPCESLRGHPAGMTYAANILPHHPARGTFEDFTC
Briefly: Wild-type ASIC1 in planar lipid bilayers, single channel recording. In kind it is biochemical. As to conditions: PKC isoforms. Here is the method: An expanded time scale is shown below each trace.
Wild-type ASIC1 incorporated into planar lipid bilayers at neutral pH or at acidic extracellular pH was also examined.
Membrane potential was held at −60 mV, and the pHo was step decreased to 4.0 for 10 s, and then returned to 7.4 for 30 s before repeating the sequence.
Control single channel were record for ASIC1 containing channels in bilayers bathed with symmetrical 100 mM NaCl, 10 mM MOPS, pH 6.2. Holding potential was +100 mV referred to the virtually grounded trans chamber. For illustration purposes, data shown were digitally filtered at 100 Hz using pCLAMP software (Axon Instruments) subsequent to acquisition of the analog signal filtered at 300 Hz with an 8-pole Bessel filter before acquisition at 1 ms per point. An expanded time scale is shown below each trace (FIG. 21).
Representative dwell-time histograms were constructed following the events analyses performed using pCLAMP software (Axon Instruments) on single channel recordings of 10 min in duration filtered at 300 Hz with an 8-pole Bessel filter before acquisition at 1 ms per point using pCLAMP software and hardware. The event detection thresholds were 50% in amplitude of transition between closed and open states, and 3 ms in duration. Closed and open time constants shown were determined by fitting the closed and open time histograms to the probability density function (Sigworth and Sine, 1987), and using the Simplex least square routine of pSTAT. Number of bins per decade in all histograms was 16.

T1 sequence (Q16515 whole entry, one chain of several): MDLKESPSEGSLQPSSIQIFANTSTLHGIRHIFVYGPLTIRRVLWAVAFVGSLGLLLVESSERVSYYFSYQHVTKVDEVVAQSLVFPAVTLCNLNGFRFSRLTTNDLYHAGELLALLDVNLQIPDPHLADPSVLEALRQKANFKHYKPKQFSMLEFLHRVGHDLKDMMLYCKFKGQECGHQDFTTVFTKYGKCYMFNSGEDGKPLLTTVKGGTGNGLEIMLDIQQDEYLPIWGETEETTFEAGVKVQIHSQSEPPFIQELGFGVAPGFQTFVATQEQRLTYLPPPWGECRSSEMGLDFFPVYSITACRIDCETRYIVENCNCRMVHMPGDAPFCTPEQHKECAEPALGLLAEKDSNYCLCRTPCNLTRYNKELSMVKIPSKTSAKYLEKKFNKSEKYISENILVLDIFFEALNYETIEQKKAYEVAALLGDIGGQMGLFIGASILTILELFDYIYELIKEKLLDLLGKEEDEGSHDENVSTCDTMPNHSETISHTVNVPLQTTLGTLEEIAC
T1 sequence (P51170 whole entry, one chain of several): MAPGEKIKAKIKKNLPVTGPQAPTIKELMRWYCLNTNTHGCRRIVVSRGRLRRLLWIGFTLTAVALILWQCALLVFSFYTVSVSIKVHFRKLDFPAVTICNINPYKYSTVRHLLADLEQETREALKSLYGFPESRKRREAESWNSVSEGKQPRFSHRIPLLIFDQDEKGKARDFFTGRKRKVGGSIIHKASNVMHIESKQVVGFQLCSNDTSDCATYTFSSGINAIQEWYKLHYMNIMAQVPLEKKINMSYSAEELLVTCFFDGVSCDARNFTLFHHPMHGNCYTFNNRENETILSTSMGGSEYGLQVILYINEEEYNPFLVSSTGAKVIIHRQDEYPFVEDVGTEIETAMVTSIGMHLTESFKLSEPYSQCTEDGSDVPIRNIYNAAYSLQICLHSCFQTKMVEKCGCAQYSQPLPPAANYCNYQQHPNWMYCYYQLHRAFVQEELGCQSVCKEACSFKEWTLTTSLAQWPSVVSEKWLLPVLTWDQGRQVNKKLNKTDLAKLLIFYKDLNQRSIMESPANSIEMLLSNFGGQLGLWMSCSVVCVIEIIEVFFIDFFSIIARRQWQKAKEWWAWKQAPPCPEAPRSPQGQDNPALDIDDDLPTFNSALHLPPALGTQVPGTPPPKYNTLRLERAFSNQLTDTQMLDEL

In the case of `N=C(N)NC(=O)c1ncc(N)nc1N` [N-amidino-3,5-diamino-pyrazinecarboxamide], the Transwell migration result in the data set with U87-MG cells was “did not”. In addition, the “[^3H]-thymidine incorporation” value with U87-MG and SK-MG cells was “did not affect”. On to “SEQ ID NO. 2: PcTX1 with a tyrosine residue or other residue at one end to aid linking to the tag protein (EDCIPKWKGCVNRHGDCCEGLECWKRRRSFEVCVPKTPKTY; listed as Psalmopoeus cambridgei)”, for which, in data set [1], the “activity relative to unmodified PcTX1” value is given as “identical to the unmodified PcTX1 sequence”. For the molecule `NC(=Nc1ccccc1)NC(=O)c1nc(Cl)c(N)nc1N` [phenamil], in data set [2], the “relative rate of proliferation” value is on record as “significantly inhibited”.

B1: syntaxin 3: syntaxin family member used as specificity control (protein, UniProt Q13277 1-289, looked up)
Syntaxin-3: MKDRLEQLKAKQLTQDDDTDAVEIAIDNTAFMDEFFSEIEETRLNIDKISEHVEEAKKLYSIILSAPIPEPKTKDDLEQLTTEIKKRANNVRNKLKSMEKHIEEDEVRSSADLRIRKSQHSVLSRKFVEVMTKYNEAQVDFRERSKGRIQRQLEITGKKTTDEELEEMLESGNPAIFTSGIIDSQISKQALSEIEGRHKDIVRLESSIKELHDMFMDIAMLVENQGEMLDNIELNVMHTVDHVEKARDETKKAVKYQSQARKKLIIIIVLVVVLLGILALIIGLSVGLN
For B1, the “inhibition of channel Po” value in the data set with ASIC1+ASIC2+γ-hENaC was “without effect”.

B2: PKCζ (enzyme, UniProt Q05513 1-592, looked up, species assumed)
Protein kinase C zeta type: MPSRTGPKMEGSGGRVRLKAHYGGDIFITSVDAATTFEELCEEVRDMCRLHQQHPLTLKWVDSEGDPCTVSSQMELEEAFRLARQCRDEGLIIHVFPSTPEQPGLPCPGEDKSIYRRGARRWRKLYRANGHLFQAKRFNRRAYCGQCSERIWGLARQGYRCINCKLLVHKRCHGLVPLTCRKHMDSVMPSQEPPVDDKNEDADLPSEETDGIAYISSSRKHDSIKDDSEDLKPVIDGMDGIKISQGLGLQDFDLIRVIGRGSYAKVLLVRLKKNDQIYAMKVVKKELVHDDEDIDWVQTEKHVFEQASSNPFLVGLHSCFQTTSRLFLVIEYVNGGDLMFHMQRQRKLPEEHARFYAAEICIALNFLHERGIIYRDLKLDNVLLDADGHIKLTDYGMCKEGLGPGDTTSTFCGTPNYIAPEILRGEEYGFSVDWWALGVLMFEMMAGRSPFDIITDNPDMNTEDYLFQVILEKPIRIPRFLSVKASHVLKGFLNKDPKERLGCRPQTGFSDIKSHAFFRSIDWDLLEKKQALPPFQPQITDDYGLDNFDTQFTSEPVQLTPDDEDAIKRIDQSEFEGFEYINPLLLSTEESV
For the molecule B2, in data set [3], the “ASIC1 activity in planar lipid bilayers” value was “Neither PKCε, PKCζ, nor their combination had any effect on ASIC1 activity in bilayers”; the “in vitro phosphorylation of ASIC1” value was “PKC holoenzyme, PKCβI, PKCβII, PKCδ, PKCε, and PKCζ phosphorylated ASIC1 in vitro”. The reversal of the PKCβI+PKCβII inhibition of ASIC1 activity in bilayers (PKCε and PKCζ in combination) in data set [4] came out at 5 fold excess. In addition, in the data set with ASIC1, the “effect on ASIC1 activity in bilayers” value is recorded as “Neither PKCε, PKCζ, nor their combination had any effect”.
